Test [1] concerns the target EGFR kinase domain I682Q mutant with N-terminal His tag and linker (human) (UniProt P00533). The experiment in a line: anisotropy.
Test [2] has as its target wild-type EGFR kinase domain (residues 672-998 of human EGFR) with N-terminal 6-His tag, linker and TEV site (human) (UniProt P00533). In words: cell-based or functional assay.
The target in test [3] is EGFR kinase domain L834R mutant (human) (UniProt P00533). The experiment in a line: cell-based or functional assay.

Chain of 30-residue fluorescein-labelled MIG6 peptide (residues 334-363) (Q9UJM3 334-363): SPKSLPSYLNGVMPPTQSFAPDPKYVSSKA

In turn, “30-residue fluorescein-labelled MIG6 peptide (residues 334-363) (from UniProt Q9UJM3 334-363)” had a Kd in test [1] of 18.3 µM. In test [2], “40-residue MIG6 peptide (residues 325-364) (from UniProt Q9UJM3 325-364)” gave an IC50, inhibition of activated EGFR kinase of 10 µM. Substance “MIG6(segments 1-2) peptide (residues 336-412) (from UniProt Q9UJM3 336-412)” had an IC50, inhibition of kinase activity in solution in test [3] of 200 nM.

The substance “MIG6(segments 1-2) peptide (residues 336-412) bearing Y358A (from UniProt Q9UJM3 336-412)” gave an IC50, inhibition of kinase activity in solution in test [3] of 5000 nM.
